Substrate in data set [1]: O=C(O)c1ccc(O)cc1OCc1ccccc1
Put plainly: Michaelis-Menten constant against p-hydroxybenzoate hydroxylase (PHBH) from Pseudomonas fluorescence compared with NADPH. The following applies: Pseudomonas fluorescens.

Substrate in data set [2]: O=C(O)c1ccc(O)cc1OCc1ccccc1
Put plainly: Michaelis-Menten constant against p-hydroxybenzoate hydroxylase (PHBH) from Pseudomonas fluorescence compared with p-hydroxy benzoic acid. The following applies: Pseudomonas fluorescens.

Data on one protein can be found in ChEMBL document CHEMBL1127417, “Multisubstrate inhibition of 4-hydroxybenzoate 3-monooxygenase” (J Med Chem, 1994).

B1: p-hydroxybenzoate hydroxylase (Pseudomonas fluorescens), P00438 (protein)
chain: MKTQVAIIGAGPSGLLLGQLLHKAGIDNVILERQTPDYVLGRIRAGVLEQGMVDLLREAGVDRRMARDGLVHEGVEIAFAGQRRRIDLKRLSGGKTVTVYGQTEVTRDLMEAREACGATTVYQAAEVRLHDLQGERPYVTFERDGERLRLDCDYIAGCDGFHGISRQSIPAERLKVFERVYPFGWLGLLADTPPVSHELIYANHPRGFALCSQRSATRSRYYVQVPLTEKVEDWSDERFWTELKARLPAEVAEKLVTGPSLEKSIAPLRSFVVEPMQHGRLFLAGDAAHIVPPTGAKGLNLAASDVSTLYRLLLKAYREGRGELLERYSAICLRRIWKAERFSWWMTSVLHRFPDTDAFSQRIQQTELEYYLGSEAGLATIAENYVGLPYEEIE
As for B1, the Km in data set [1] worked out at 57 µM; in data set [2], 21 µM.
